test: yeast display, Sf9 membrane polyspecificity reagent, FACS + sequencing; frameworks hold sequencing errors
Summary of the method: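 After 36–48 hours of galactose induction, yeast (Saccharomyces cerevisiae BJ5465) displaying a synthetic nanobody library were stained at 4 °C for 1 hour with 10% biotinylated, detergent-solubilized Sf9 membrane reagent. Streptavidin microbeads enriched the stained cells before FACS sorting into low and high (top ~1%) gates on anti-HA and streptavidin fluorescence. Each clone's polyreactivity label reflects its gate of origin.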

Sequence	polyreactivity (PSR sort gate)
QVQLVESGGGLFQAGGSLRLSCAASGTTFVRYAMGCYRQAPGKDRQLVAAISSSGATTYYADSVKGRFTISRDNAKNTVYLQMNSLKPEDTEVYYCARLYVKRHGYWGQGSQVTVSS	high polyreactivity
QVQLVESGGGLVQAGGSLRLSCAASGSTFFTNVMGWYRQAPGKERELVAVIRWRGSDTYYADSVKGRFTISRDNAKNTVYLQMNSLKPEDTAVYYCNAIESFYPTTGEQGYSYDYWGQGTQVTVSS	low polyreactivity
QVQLVESGGGIVQAGGSLRLSCAASGFTFQFYAMGWYRQAPGKEREFVAAISGSGGSTYYADSVKGRFTISRDNAKNTVYLQMNSLKPEDTAVYYCAAEVPGKPYRRSRYSFRHDYWGQGTQVTVSS	low polyreactivity
QVQLVESGGGLVQAGGSLRLSCAASGFIFGYNAMGWYRQAPGKERELVAAITWSGGSTYYADSVKGRFTISRDNAKNTVYLQMNSLKPEDTAVDYCNWPGEGDYWGQGTQVTVSS	low polyreactivity
QVQLVESGGGLVQAGGSLRLSCAASGRIFARYAMGWNRQAPGKERELVAAISFRGGSTYYADSVKGRFTISRDNAKNTVYLQINSLKPEDTAVYYWNARYGRGGYDYWGQGTQVTVSS	high polyreactivity
QVQLVESGGGLVQAGGSLRISCAASGIIFAANTMGWYRQAPGKERELVAAITSGGSTKYADSVKGRFTISRDNAKNTVYLQMNSLKPEDTAVYYCAAQYRYQRYSYAMEYWGQGTQVTVSS	high polyreactivity
QVQFVESGGGLVKAGGSLRLSCAASGYTFGRYAMGWYRQAPGKERELVAAITKSGGPTSYADSVKGRFTISRDNAKNTVYLQMNSLKPEDTAVYYCNKVLFQPYWVVYATGDYWGQGTQVTVSS	high polyreactivity
QVQLVESGGGLVQAGGSLRLSCAASGRIGYYAMGWNRQAPGKERELVAAISYGGGSTYYADSVKGRFTISRDNAKNTVYLLMNSLKPEDTAVYYCAARWGKSWRGYGYWGQGTQVSVSS	high polyreactivity
QVKLVESGGGLVQAGGSLRLSCAASGSIFNTYVMGWYRQAPGKERELVAAITSSGGRTYYADSVKGRFTISRDNAKNTVYLQMNSLKPEDTAVYYCNTAQRWVGRNDYWGQGTQVTVSS	high polyreactivity
QVQLVESGGGLVQAGGSLRLICAASGFTFLVNAMGWYRQAPGKERELVAAISSGGSTYYADSVKGRFTISRDNAKNTVYLQMNSLKPEDTAVYYCAAPTDFLFWEFDYWGQGTQVTVSS	low polyreactivity
QVQLVESGVGLVQAGGSLRLSCAASGITFSSYAMGWYRQAPGKERELVAAITRSGSTTYADSVKGRFTISRDNAKNTVYLQMNSLKPEDTAVYYCAVDYYYLTGGVDYWGQGTQVTVSS	low polyreactivity
QVQLVESGGGLVQAGGSLRLSCAASGFTFYIYAMGWYRQAPGKERELVARISSGGRTYYADSVKGRFTISRDNAKNTVYLQMNSLKPEDTAVFDCHFWYGSWGQGTQVTVSS	low polyreactivity
QVQLVESWGGLVQAAGSLRLSCAASGFIFRYNTMGSSRQAPAKERESVAAFSVSGARTYYADSVKGRFTISRDNAKNTVYLLMNSLKTEDTAVYYCNRRYPFYSRYNNDYWGQGTQVTVSS	high polyreactivity
QVQLVESGGGLVQAGGSLRLSCAASGRTFVGYVMGWYRQAPGKERELVASITYTGTSTYYADSVKGRFTISRDNAKNTVYLQMNSLKPEDTAVYYCAAQYYLYRRGYIWKYDYWGQGTQVTVSS	high polyreactivity
QVQLLESGGGLVQAGGSLRLSCAAYGFIFVSNGMGWYRQAPGKEREFVASITSIGGSTYYADSVKGRFTISRDNAKNTVYLQMNSLKPEDTAVYYCAARDIALNAVGRPKEYNRDYWGQGTQVTVSS	low polyreactivity
QVQIVESGGGLVQAGGSLRLRCAASGRIFSWNAMGWSRQAPGKERELVPAITWRGTSTYYADSVKGRFTISRDIAKNTVYLQMISLKPEDTAVYFCNVGLYRDWYTFGLEYDYWGQGTQVSVSS	low polyreactivity
QVQLVESGGGLVQAGGSLRLSCAASGLTFRYNTMGWYRQAPGKEREFVAAINYGGGSTYYADSVKGRFTISRDNAKNTVYLQMNSLKPEDTAVYYCARRTPRTPVTLYDYWGQGTQVTVSS	high polyreactivity
QVQLVESGGGLVQAGGSLRLSCAASGSTFYKYAMGWYRQAPGKERELVATINISGGSTSYADSVKGRFTISRDYAKNTVYLQMNSLKPEDTAVYYCAASLTRHGYYRRFDYWGQGTQVTVSS	high polyreactivity
QVQLVESGGGLVQAGGSLRLSCAASGFTFYYNAMGWYRQAPGKERELGASITRSGGRTYYADSVKGRFTISRDYAKNTVYLQMNSLKPEDTAVYYCARRYPGGYYWGQGTHVTVSS	high polyreactivity
QVQLVESGGGLVQAGGSLRLSCAASGRIFPVYAMGWYRQAPGKERELVATISYSGSSTYYADSVKGRFTISRDNAKNTVYLQMNSLKPEDTAVYYCNADAFGPPGVQYYYWGQGTQVTVSS	low polyreactivity
QVQLVESGGGLVQAGGSLRLSCAASGRTFSRYAMGWYRQAPGKERELVAAITWSGGDTYYADSVKGRFTISRDNAKNTVYLQMNSLKPEDTAVYYCAAEWGTVGYIRYYAIWSEYDYWGQGTQVTVSS	low polyreactivity

Sequence	polyreactivity (PSR sort gate)
QVHLVETGGGLVQAGGSLRLSCAASGFTFAYYAMGWYRQAPGKEREFVAVITWSGGDKYYADSVKGRFTISRDIAKNTVYLQMNSLKPVDTSVYYCNADAYRITRYGYDYWGQGTQVTVSS	high polyreactivity
QVQLVESGGGLVQAGGSLRLSCAASGRTIPNYAMGWTRQAPGKERELVAAISSSGDRTYYADSVKGRFTISRDNAKNTVYLQMNSLKPEDTAVYYCAADRGARGDYWGQGTQVTVSS	high polyreactivity
QVQLVESGGGIVQAGGSLRLSCAASGISFLRYAMGWYRQAPGKEREFVAAINSIVGRTYYADSVKGRFTISRDNAKNTVYLQMNSLIPDDTAVYYCAADSNVRYGMDYWGQGTQVTVSS	low polyreactivity
QVQLVESGGGLVQAGGSLRLSCAATGSIFPANVMGWYRQAPGKERELVASINSGDDTNYADSVKGRFTISRDNAKNTVYLQMNSLKPEDTAVYYCATGDWYPYGDYIYDYWGQGTQVTVSS	low polyreactivity
QVQLVESGGGLVQAGGSIRLSCAASGFTFAKYSMGWYRQAPVKERELVATITRGGNTYYADSVKGRFTISRDNAKNTVYLQMNSLKPEDTAVYYCAASWYRFSQYKYYYWGQGTKVTVSS	high polyreactivity
QVQLVESGGGLVQAGGSLRLSCAASGRIFVYNAMGWYRQAPGKERELVAAINSGDSTYYADSVKGRFTISRDNAKNTVYLQMNSLKPEDTAVYYCAADIHYYPGYLAYDYWGQGTQVTVSS	low polyreactivity
QVQLVESGGGLVQAGGSLRLSCAASGRTFDSNTMGWYRQAPGKERELVAAITGSGGRTYYADSVKGRFTISRDNAKNTVYLQMNSLKPEDTAVYYCNADSLYRYGSQYYYWGQGTQVTVSS	high polyreactivity
QVQLVESGGGLVQAGGSLRLSCAASGFIFKKYAMGWYRQAPGKERELVAAISWSGGNTYYADSVKGRFTISRDNAKNTVYLQMNSLKPEDTAVYYCNAAGRRYKFDYWGQGTQVTVSS	high polyreactivity
QVQLVESGGGLVQAGGSLRLSCAASGFIFAEYAMGWSRQAPGQEREFVATINIGGSTYYADSVKGRFTISRDNAKNTVYLQMNSLKPEDTAVYYCAAEFWWGDGSQGIYDYDYWGQGTQVTVSS	low polyreactivity
QVQLVESGGGLVQAGGSLRLSCAASGSIFGGYAMGWYRQAPGKERELVAAISSSGVRTYYADSVKGRFTISRDNAKNTVYLQMNSLKPEDTAVYYCAADRSRSIIPFDYWGQGTQVTVSS	low polyreactivity
QVQLVESGGGLVQAGGSLRLSCAASGLIFPTNAMGWYRQAPGKERELVAAISSVGSTYYADSVKGRFTISRDNAKNTVYLQMNSLKPEDTAVYYCAADWTLDPSYGYYADDYWGQGTQVTVSS	low polyreactivity
QVQRVESGGGLVQAAASLRLSCAASGRTFYVYTMGWYRPAPGKERELVAAITSGGSTNYADSVKGRFTISRDNAKNTVSLHMNSLKPEVTAVYYCAARVSTVFKRYYYWGQGTQVTVSS	high polyreactivity
QVQHVESGGGLVQAGGSLRLSCAASGSIFLVYAMGWYRLAPGKERELVAAISNSGSTNYADSVKGRFTISRDNAKNTVYLQMNSLKPEDTAVYYCAKDSLVDHVGGYDYWGHGTQVTVSS	low polyreactivity
KVQLVESGGGLVQAGGSLRLSCAASGSIFHNYDMGWYRQAPGKERELVADISRGGDTNYADSVKGRFTISRDNAKNTVYLEMKSLKPEDTAVYYCNATYWILDFPWWRETFDYWGQGTQVTVSS	low polyreactivity
QVQLVESGGGLVQAGGSLRLSCAASGFIFRVNAMGWYRPAPGKERELVAAITKSGGSTYYADSVKGRFTISRDNAKNTVYLQMNSLKPEDTAVYYCNVVWYEGYGHWGQGTQVTVSS	low polyreactivity
QFQLVESGGGLVQAGGSLRLSCAASGITFDVNAMGCYIQAPGKERELVASITAGGNTYYSDSVKGRFTISRDNAKNTVYLQMNSLKPVDTAVYFCAAVSTSLYCAGYDYWGQGTQVTVSS	low polyreactivity
QVQLVESGGGLVQAGGSLRLSCSSSGRIFNDYAMGWYRKAPGKERELVATYADSEKGRFTISRYTAKKTVYLQMNSLKPEDTAVYYCAADFPSFPDFRPEYDYWGQGPQVTVSS	low polyreactivity
QVQLVESGGGLVQAGGSLRLSCAASGRIFSDYAMGWSSQAPGKERELVATITSGDSTNYADSVKGRFTISRDHAKNTVYLQMNSLKPEDTAVYYCNADRFADYDYWGQGTQVTVSS	low polyreactivity
QVQLVESGGGLVQAGGSLRLSCAASGSTFTENTMGWYRQAPGKERELVAAITDSGGSTYYADSVKGRFTISRDNAKNTVYLQMNSLKPEDTAVYYCAADVQPDTRSTPEMDYWGQGTQVTVSS	low polyreactivity
QVQLVESGGGLVQAGGSLRLSCAASGNTFVQNTMGWYRQAPGKERELVAAISSRGGSTYYADSVKGRFTISRDNAKNTVYLQMNSLKPEDTAVYYCAARSKVRRSYDYRGQGTQVTVSS	high polyreactivity

Reference: the nanobody polyreactivity screen of Harvey et al. (2022)
